Source: paper PMC12486124 (bioRxiv, 2025)

Molecular target: reconstituted nucleosome (Xenopus laevis histone octamer on Widom 601 DNA) (Xenopus laevis)
Experiment: fluorescence polarisation

Kd: 120 ± 10 nM
B1: E2F1-DP2 DNA binding domains heterodimer (complex)
chain 1: not shown
chain 2: KNGKGLRHFSMKVCEKVQRKGTTSYNEVADELVSEFTNSNNHLAADSAYDQKNIRRRVYDALNVLMAMNIISKEKKEIKWIG
